This note sets out measurements from publication PMC8452627.

The Kd is a measure of binding affinity in units of concentration. Lower therefore signals a tighter complex.

One experiment addresses human FcRn (human) (UniProt P55899). The experiment can be described thus: SPR; steady-state equilibrium binding assay on ProteOn; human FcRn at pH 6. Background: In SPR one partner is held on a chip, and binding of the other changes the refractive index at the surface.
In the next experiment the target is human FcγRIIa (human) (UniProt P12318). The experiment can be described thus: SPR; steady-state equilibrium binding assay on ProteOn; human Fcγ receptors.
UniProt P12318, sequence (P12318 34-317): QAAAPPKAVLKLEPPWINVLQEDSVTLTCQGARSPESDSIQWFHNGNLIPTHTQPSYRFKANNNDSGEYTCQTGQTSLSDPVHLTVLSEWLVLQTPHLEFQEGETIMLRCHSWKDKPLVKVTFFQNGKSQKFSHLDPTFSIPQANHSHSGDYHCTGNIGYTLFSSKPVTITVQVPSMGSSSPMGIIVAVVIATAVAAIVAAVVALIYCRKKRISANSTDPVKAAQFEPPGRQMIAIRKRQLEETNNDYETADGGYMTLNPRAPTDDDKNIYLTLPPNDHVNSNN

UniProt P55899, sequence (P55899 24-365): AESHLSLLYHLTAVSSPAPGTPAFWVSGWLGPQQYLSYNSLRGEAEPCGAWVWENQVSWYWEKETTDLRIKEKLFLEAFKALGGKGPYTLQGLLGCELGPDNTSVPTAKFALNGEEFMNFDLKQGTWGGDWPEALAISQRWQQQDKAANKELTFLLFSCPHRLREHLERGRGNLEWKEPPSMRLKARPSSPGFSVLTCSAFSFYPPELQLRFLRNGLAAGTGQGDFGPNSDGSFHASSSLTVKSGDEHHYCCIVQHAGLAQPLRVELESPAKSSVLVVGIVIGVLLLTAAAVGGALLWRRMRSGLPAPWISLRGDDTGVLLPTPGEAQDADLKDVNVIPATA

Take “isotype control of human IgG4 S228P (antibody)”: the Kd came out at 6.2 µM with human FcRn (human) and 1.4 µM with human FcγRIIa (human).
